System: Escherichia coli TOP10
Test: shrunken log2 fold change of peptide-encoding DNA abundance (4.5 h post-induction vs induction); higher = less antimicrobial activity (less host growth inhibition)
Conditions: time post-induction: 4.5 h; library: site-saturation at positions 5, 18, 19, 20
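Also: peptides expressed intracellularly from a pBAD plasmid library in pooled LB shake-flask culture, induced with 0.3% L-arabinose, DNA abundance read by NGS, three biological replicates, DESeq2 with apeglm shrinkage.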

Row | Sequence | shrunken log2 fold change
1 | RRIRPRPPRLPRPRPRPYTLPRP | -0.54
2 | RRIRPRPPRLPRPRPRPCIVPRP | -0.199
3 | RRIRFRPPRLPRPRPRPQCDPRP | -0.388
4 | RRIRVRPPRLPRPRPRPYRTPRP | -0.19
5 | RRIRLRPPRLPRPRPRPKRSPRP | 0.558
6 | RRIRFRPPRLPRPRPRPRADPRP | 0.223
7 | RRIRTRPPRLPRPRPRPDYSPRP | -0.0445
8 | RRIRIRPPRLPRPRPRPHVHPRP | -0.165
9 | RRIRIRPPRLPRPRPRPWNGPRP | -0.172
10 | RRIRMRPPRLPRPRPRPILSPRP | 0.00774
11 | RRIRERPPRLPRPRPRPLAYPRP | -0.203
12 | RRIRKRPPRLPRPRPRPANKPRP | 0.142
13 | RRIRWRPPRLPRPRPRPWSKPRP | -0.191
14 | RRIRMRPPRLPRPRPRPNKKPRP | -0.0238
15 | RRIRFRPPRLPRPRPRPLETPRP | 0.105
16 | RRIRHRPPRLPRPRPRPMDEPRP | -0.204
17 | RRIRARPPRLPRPRPRPWIEPRP | -0.105
18 | RRIRMRPPRLPRPRPRPEGKPRP | 3.36
19 | RRIRTRPPRLPRPRPRPYHPPRP | -0.304
20 | RRIRVRPPRLPRPRPRPNDWPRP | -0.208
21 | RRIRQRPPRLPRPRPRPVGTPRP | -0.0913
22 | RRIRYRPPRLPRPRPRPTWDPRP | 0.114
23 | RRIRCRPPRLPRPRPRPNAKPRP | 0.0347

Row | Sequence | shrunken log2 fold change
24 | RRIRYRPPRLPRPRPRPAMAPRP | 0.0187
25 | RRIRLRPPRLPRPRPRPVFNPRP | -0.448
26 | RRIRARPPRLPRPRPRPEQTPRP | 1.18
27 | RRIRGRPPRLPRPRPRPYFLPRP | -0.345
28 | RRIRHRPPRLPRPRPRPFIHPRP | -0.1
29 | RRIRKRPPRLPRPRPRPQVGPRP | 0.0646
30 | RRIRYRPPRLPRPRPRPLACPRP | -0.319
31 | RRIRDRPPRLPRPRPRPDPSPRP | -0.0385
32 | RRIRSRPPRLPRPRPRPCYKPRP | -0.281
33 | RRIRKRPPRLPRPRPRPRWCPRP | 0.251
34 | RRIRTRPPRLPRPRPRPAMRPRP | 0.445
35 | RRIRTRPPRLPRPRPRPVGQPRP | 0.00905
36 | RRIRVRPPRLPRPRPRPPKCPRP | -0.173
37 | RRIRDRPPRLPRPRPRPYLIPRP | -0.387
38 | RRIRPRPPRLPRPRPRPFGQPRP | -0.34
39 | RRIRERPPRLPRPRPRPRKRPRP | 0.255
40 | RRIRHRPPRLPRPRPRPDWPPRP | 0.114
41 | RRIRHRPPRLPRPRPRPWKGPRP | -0.0165
42 | RRIRHRPPRLPRPRPRPKHHPRP | -0.493
43 | RRIRHRPPRLPRPRPRPREDPRP | -0.0018
44 | RRIRIRPPRLPRPRPRPVIVPRP | -0.214
45 | RRIRIRPPRLPRPRPRPAGSPRP | -0.0214
46 | RRIRIRPPRLPRPRPRPRMWPRP | -0.0292

Row | Sequence | shrunken log2 fold change
47 | RRIRLRPPRLPRPRPRPSQLPRP | -0.282
48 | RRIRDRPPRLPRPRPRPRSDPRP | 0.514
49 | RRIRCRPPRLPRPRPRPQWTPRP | -0.205
50 | RRIRVRPPRLPRPRPRPPKRPRP | -0.193
51 | RRIRCRPPRLPRPRPRPWCAPRP | -0.0685
52 | RRIRCRPPRLPRPRPRPDWCPRP | 0.27
53 | RRIRWRPPRLPRPRPRPKDMPRP | -0.0331
54 | RRIRCRPPRLPRPRPRPLIGPRP | -0.0236
55 | RRIRHRPPRLPRPRPRPYYVPRP | -0.0196
56 | RRIRFRPPRLPRPRPRPLCNPRP | -0.398
57 | RRIRYRPPRLPRPRPRPTQFPRP | -0.558
58 | RRIRIRPPRLPRPRPRPWEGPRP | -0.152
59 | RRIRTRPPRLPRPRPRPDNAPRP | -0.223
60 | RRIRWRPPRLPRPRPRPVGSPRP | 0.445
61 | RRIRQRPPRLPRPRPRPQKFPRP | -0.283
62 | RRIRGRPPRLPRPRPRPDVVPRP | 0.424
63 | RRIRTRPPRLPRPRPRPYRTPRP | 0.0638
64 | RRIRGRPPRLPRPRPRPRRAPRP | 0.963
65 | RRIRHRPPRLPRPRPRPQHCPRP | -0.503
66 | RRIRERPPRLPRPRPRPRGPPRP | 0.662
67 | RRIRKRPPRLPRPRPRPCICPRP | -0.14
68 | RRIRWRPPRLPRPRPRPQFFPRP | -0.134
69 | RRIRCRPPRLPRPRPRPMRQPRP | 0.076

Row | Sequence | shrunken log2 fold change
70 | RRIRDRPPRLPRPRPRPVVTPRP | 0.689
71 | RRIRRRPPRLPRPRPRPFDSPRP | -0.21
72 | RRIRQRPPRLPRPRPRPFAPPRP | 0.0897
73 | RRIRERPPRLPRPRPRPPIPPRP | 0.281
74 | RRIRWRPPRLPRPRPRPNDTPRP | -0.268
75 | RRIRGRPPRLPRPRPRPPEFPRP | 1.01
76 | RRIRERPPRLPRPRPRPVITPRP | -0.145
77 | RRIRTRPPRLPRPRPRPSWPPRP | 0.0669
78 | RRIRYRPPRLPRPRPRPHGPPRP | -0.239
79 | RRIRTRPPRLPRPRPRPLFEPRP | -0.166
80 | RRIRTRPPRLPRPRPRPKHIPRP | -0.823
81 | RRIRPRPPRLPRPRPRPWSDPRP | -0.267
82 | RRIRVRPPRLPRPRPRPGHCPRP | 0.258
83 | RRIRTRPPRLPRPRPRPGLRPRP | 0.598
84 | RRIRTRPPRLPRPRPRPGMFPRP | -0.397
85 | RRIRQRPPRLPRPRPRPDRRPRP | 0.00167
86 | RRIRIRPPRLPRPRPRPICCPRP | -0.107
87 | RRIRHRPPRLPRPRPRPLGKPRP | -0.239
88 | RRIRVRPPRLPRPRPRPRYWPRP | 0.338
89 | RRIRLRPPRLPRPRPRPWQYPRP | -0.0471
90 | RRIRDRPPRLPRPRPRPVNTPRP | -0.327
91 | RRIRDRPPRLPRPRPRPMKHPRP | -0.245

Source: the supplement of paper PMC9112550, “Optimization of the antimicrobial peptide Bac7 by deep mutational scanning” (BMC Biology, 2022)
